This test has as its target HIV-1 protease (EC 3.4.23.16) (HIV-1). Briefly: cell-based or functional assay.

B1: inhibitor 04 (other, not shown: small tags and cut ends)
chain: KMEGKSMLKLSHVLAFLLLASLFQSLMARDLISDGIEVLQLPVENEGESVFCPGKLSWPELVGMPAGYAKAIIEKENSIVHDVRLLLPGMVKPANYVCGRVFLVVDLKLIVQIPPSMG
With B1, the “IC50 (enzyme inhibition)” value was 670 nM.

These data come from EP2918281A1 (Max-Planck-Gesellschaft zur Förderung der Wissenschaften …, dated 2015).
